The record followed here is patent US12202907B2, “Nucleic acids encoding and methods of producing proteins comprising antibody chains” (Innate Pharma, priority 2018, dated 2025).

The target in experiment [1] is T1, Human CD39-L2 (NTPDase6, ENTPD6) (Homo sapiens, UniProt O75354, K202E).
T1 sequence (O75354 1-484 K202E): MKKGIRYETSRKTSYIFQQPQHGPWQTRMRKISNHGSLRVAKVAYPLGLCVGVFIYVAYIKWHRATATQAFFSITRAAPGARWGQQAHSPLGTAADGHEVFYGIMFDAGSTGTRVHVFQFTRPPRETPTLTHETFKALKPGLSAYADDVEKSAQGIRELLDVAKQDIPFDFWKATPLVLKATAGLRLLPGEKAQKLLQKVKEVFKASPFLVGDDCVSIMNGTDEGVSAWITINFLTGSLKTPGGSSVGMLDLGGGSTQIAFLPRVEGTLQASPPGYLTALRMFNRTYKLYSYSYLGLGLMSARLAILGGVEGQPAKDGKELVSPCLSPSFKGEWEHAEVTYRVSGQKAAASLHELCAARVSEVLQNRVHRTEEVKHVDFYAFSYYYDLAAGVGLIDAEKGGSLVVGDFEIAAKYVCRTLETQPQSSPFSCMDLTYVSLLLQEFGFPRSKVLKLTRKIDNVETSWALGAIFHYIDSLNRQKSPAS
Nature of the experiment: ELISA titration on CD39-L2. The experiment is classed as binding. As for the experimental part: Antibody I-394 was tested for binding to recombinant human CD39 isoforms (Rec-huCD39 isoforms) having amino acid sequences shown below were coated in 96-well plate in PBS 1X at 500 ng/ml or 1 μg/ml at 4° C. overnight. Wells were washed in TBS Tween® 20 (polysorbate 20), and further saturated 2H at RT in TBS Blocking buffer. Dose range concentration of primary antibody was incubated in TBS blocking buffer for 2 h at RT. Wells were washed in TBS Tween® 20 (polysorbate 20). […] Optical density was measured on Enspire™ at OD=450.
(An ELISA detects its analyte on a solid surface through an enzyme-linked reagent.)

For experiment [2], the system named is allogenic CD4 T cells. Nature of the experiment: Mixed lymphocytes reaction (MLR) with ATP-activated DC. The experiment is classed as cell-based, human. Particulars: MoDC activated in presence of ATP and antibody. As to the method:
Briefly, human monocytes were purified from human healthy blood and differentiated into MoDC in presence of GM-CSF and IL-4 during 6 days. Then MoDC were activated in presence of ATP (Sigma, 0.25-1 mM) during 24 hours and DC activation were assessed by analyzing CD80, CD83 and HLA-DR expression by flow cytometry. In some cases, MoDC were preincubated for 1 hour in presence of CD39 inhibitor: […] (Tocris, 250 μM), CD73 inhibitor: APCP (Tocris 50 μM), anti-CD39 blocking antibody I-394 or BY40 (for BY40 see WO2009/095478), or anti-CD73 blocking antibodies. LPS (Invivogen, 10 ng/ml) was used as positive control. To assess resulting effect of ATP-mediated DC activation on CD4 T cells activation, ATP-activated DC were washed and then incubated with allogenic CD4 T cells (ratio 1 MoDC/4 T cells) for a mixed lymphocytes reaction (MLR) during 5 days. T cells activation and proliferation were analyzed through CD25 expression and Cell Trace Violet dilution by flow cytometry (FIG. 8).
Antibodies were tested to assess their efficacy in reducing T cell suppression in the assay described in Example 12. […] T cells activation and proliferation were analyzed through CD25 expression and Cell Trace Violet dilution by flow cytometry.

Experiment [3] deals with CHO cells expressing cynomolgus (Macaca fascicularis) CD39. Kind of experiment: Antibody titration on CHO-cyCD39 by flow cytometry. The format is binding. As to conditions: qualitative. As for the experimental part:
(§1) Antibody I-394 was tested in two repeated experiments for binding to CHO cells expressing human CD39, CHO cells expressing cynomolgus (Macaca fascicularis) CD39, CHO cells expressing murine CD39, and human Ramos lymphoma cells (ATCC™, reference CRL-1596). Cells were incubated with various concentration of unlabeled anti-CD39 antibody from 30 μg/ml to 5×10^−4 μg/ml, for 30 minutes at 4° C. After washes, cells were incubated with Goat anti-mouse H+L labeled secondary antibody for 30 min at 4° C.

Experiment [4] deals with T2, CHO cells expressing murine CD39 (Mus musculus, UniProt P55772).
T2 construct: expressed in transfected cells; host or cells: CHO
T2 sequence (P55772 1-510): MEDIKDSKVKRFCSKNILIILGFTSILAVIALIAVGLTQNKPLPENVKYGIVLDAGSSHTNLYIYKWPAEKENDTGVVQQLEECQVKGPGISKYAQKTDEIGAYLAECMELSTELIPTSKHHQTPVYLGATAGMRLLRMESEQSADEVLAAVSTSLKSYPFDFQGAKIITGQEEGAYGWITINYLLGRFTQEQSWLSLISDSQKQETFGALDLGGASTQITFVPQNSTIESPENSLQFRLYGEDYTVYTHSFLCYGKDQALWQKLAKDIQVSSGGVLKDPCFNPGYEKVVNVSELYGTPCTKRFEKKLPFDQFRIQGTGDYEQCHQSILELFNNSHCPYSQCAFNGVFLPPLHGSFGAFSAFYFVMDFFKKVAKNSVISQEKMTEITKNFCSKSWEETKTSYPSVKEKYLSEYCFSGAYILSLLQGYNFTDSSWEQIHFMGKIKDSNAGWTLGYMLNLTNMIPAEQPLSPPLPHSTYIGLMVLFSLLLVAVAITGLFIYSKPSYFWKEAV
Nature of the experiment: Antibody titration on CHO-moCD39 by flow cytometry. The experiment is classed as binding. Particulars: qualitative. As to the method: as §1
A general note: Flow cytometry measures light scatter and fluorescence of single cells or particles in a stream.

With “I-394: anti-CD39 antibody, VH SEQ ID NO: 6, VL SEQ ID NO: 7, human IgG1 Fc with L234A/L235E/G237A/A330S/P331S”, in experiment [1], the “binding to CD39-L2 in ELISA” value is “not to any of the isoforms CD39-L1, -L2, -L3 or -L4”. The “T cells proliferation and activation in MLR (CD25, Cell Trace Violet dilution)” value in experiment [2] is “resulted in higher T cells proliferation and activation”. Besides, the “binding to cells expressing cynomolgus CD39 (CHO-cyCD39)” value in experiment [3] was “bound”. Further, the “binding to cells expressing murine CD39 (CHO-moCD39)” value in experiment [4] is “but not to cells expressing murine CD39”.
